Among the data in CN117964771A (ZHIZE TONGKANG GUANGZHOU BIOTECHNOLOGY CO LTD, dated 2024) are Kd values, retold here.

For the assay, the target named is T1, 人基质金属蛋白酶7(hMMP7)重组蛋白 (human, UniProt P09237 18-267, limits assumed).
T1 construct: Recombinant protein made according to UniProt P09237; also called MMP7抗原; MMP7蛋白
T1 sequence (looked up): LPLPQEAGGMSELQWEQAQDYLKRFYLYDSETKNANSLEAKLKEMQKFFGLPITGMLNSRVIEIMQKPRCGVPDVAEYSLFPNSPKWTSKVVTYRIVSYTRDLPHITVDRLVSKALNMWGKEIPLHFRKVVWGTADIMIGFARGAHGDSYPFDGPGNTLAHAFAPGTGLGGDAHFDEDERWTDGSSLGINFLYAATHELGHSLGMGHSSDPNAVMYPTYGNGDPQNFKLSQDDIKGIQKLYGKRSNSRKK
Nature of the assay: SPR, labelled MMP7 immobilised on chip, antibody as analyte (100 nM, 2-fold dilutions), 1:1 Langmuir model. In general terms: Surface plasmon resonance follows binding to a sensor surface in real time, without labels.

B1: MMP7单克隆抗体M4 (antibody, mouse IgG1, kappa, V domains shown)
VH: QVQLQQSGAELMKPGASVKLSCKASGYTFTSYYMYWVKQRPGQGLEWIGEINPSNADTEFNEKFKSKATLTVDKSSSTAYMQLSSLTSEDSAVYYCTRWPLYGAMDYWGQGTSVTVSS
VL: DVQITQSPSYLAASPGETITINCRASKSISKYLAWYQEKPGKTNKLLIYSGHWLQSGIPSRFSGSGSGSDFTLTISSLEPEDFAMYYCQQHFEYPWTFGAGTKLELKR
In the case of B1, the Kd (as a rule, the free concentration of one partner at which half of the binding sites on the other are occupied at equilibrium, for simple one-to-one binding) was under 1 nM.
